± gives the standard deviation.
Assay: protein stability index of a GFP-peptide fusion (GPS, HEK-293T) (PSI 1-6); higher = more stable
[1] = treatment: DMSO, c terminus: a fixed tail appended
[2] = treatment: MLN4924 1 uM, 8 h, c terminus: a fixed tail appended
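Note: 24-mer peptide tiles fused after GFP, lentivirally expressed, FACS-sorted into six equal bins by GFP/DsRed ratio, decoded by Illumina sequencing, PSI is the read-weighted mean bin number.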

Sequence	protein stability index [1]	protein stability index [2]	protein stability index (treatment: DMSO, c terminus: native)	protein stability index (treatment: MLN4924 1 uM, 8 h, c terminus: native)
PMTPEDPSFWDCFCFTEEIPIRNG [AASDHPPT]	3.56 ± 0.093	3.67 ± 0.2	–	–
SSTTGLFYSAEIICAIEYLHSKEI [PRKX]	3.13 ± 0.61	3.33 ± 1	–	–
ANAVISVSGINHDVTSGDHGDYFR [CPN1]	3.58 ± 0.13	3.48 ± 0.31	–	–
DSEFSMQEPMVPAKLGTQAEKDRR [PPFIA4]	4.9 ± 0.77	5.646 ± 0.045	–	–
WKNFDERKEMATILSKMPKPKPPP [CCNC]	3.63 ± 0.28	3.64 ± 0.31	–	–
VKGSRVTVMEKCSDGWWRGSYNGQ [NCK2]	2.13 ± 0.47	2.29 ± 0.34	–	–
IGWKTVRMYPFQIHSIALSTFASL [CDS2]	2.69 ± 0.65	2.65 ± 0.45	–	–
WIHRPGCRCKNSNTVYCKLESCPS [SPRY1]	2.62 ± 0.26	3.21 ± 0.78	–	–
EKDLVGLAQIAEVLEMFDLRMMVE [RHOBTB1]	2.46 ± 0.21	2.22 ± 0.38	–	–
YVTPSDFDQLKQFLTFDKQVLRFY [EFHC1]	2.03 ± 0.32	2.28 ± 0.29	–	–
FRHDRLRFRDFVDALEDSLEEVAV [PBXIP1]	3.04 ± 0.47	3.48 ± 0.3	–	–
EQIKTRTEELIVQTKQVYDAVGML [NLN]	3.68 ± 0.25	3.88 ± 0.41	–	–
RECGLAAPRFSFNDPSGSEEADFL [IRX6]	4.53 ± 0.21	4.34 ± 0.33	–	–
FEGDMGAAGGDGELGSPLRRSISS [PSD2]	4.81 ± 0.2	4.94 ± 0.13	–	–
YQHFLQDCVDGLFKEVKEKFKGWV [DLC1]	2.26 ± 0.49	2.02 ± 0.11	–	–
TASYPSDGCGADGLRSRVKYGVKT [NOL4L]	3.84 ± 0.24	3.98 ± 0.32	–	–
IDIVAIIPYFITLGTELAERQGNG [KCNA3]	2.97 ± 0.38	3.29 ± 0.59	–	–
EEQRVEQQTKLEAEKLKVQALKDR [LSM1]	5.55 ± 0.28	5.36 ± 0.12	–	–
ITMMALKVLGELNILPNTQKVTCF [TENT5D]	2.86 ± 0.59	2.31 ± 0.75	–	–
NARRRLKKENKMTWAPKNKGGEER [IRX6]	4.51 ± 0.27	4.63 ± 0.098	–	–
PGPMGPPGPPGPTGVPGSPGHIGP [EMID1]	4.82 ± 0.4	5.18 ± 0.34	–	–
IALYFVSKKFKNCFQSCLCCCCYQ [EDNRA]	3.19 ± 1.1	2.13 ± 1.4	–	–

Sequence	protein stability index [1]	protein stability index [2]	protein stability index (treatment: DMSO, c terminus: native)	protein stability index (treatment: MLN4924 1 uM, 8 h, c terminus: native)
IREKSRLFDTKHDVYSFAIVIWGV [RIPK4]	3.27 ± 0.68	2.9 ± 0.83	–	–
FSGQIRLNEDTIQDVVQAADLLLL [GAN]	2.27 ± 0.24	2.3 ± 0.43	–	–
CISDELLENLCENASTLRTINIKC [FBXO39]	2.47 ± 0.2	2.69 ± 0.28	–	–
TFLTVTDLIGLPWVCFIYTIMSLA [SLC2A12]	3.38 ± 0.45	2.84 ± 0.58	–	–
ARLMRSNYPPPLSSAALRGAGPTR [C6orf223]	3.79 ± 0.2	3.96 ± 0.14	–	–
EGSPRNLGTPTSSTPRPSITPTKK [C2CD2L]	5.35 ± 0.19	5.34 ± 0.17	–	–
VYSDHTNTNNLTFLMDLPSAGRSM [RNF180]	2.29 ± 0.45	2.79 ± 0.42	–	–
SSENFDDYMKEVGVGFATRKVAGM [FABP4]	3.27 ± 0.1	3.55 ± 0.3	–	–
GPRPPAGELGSIGDHERAIDFSPY [CEBPB]	4.15 ± 0.25	4.28 ± 0.21	–	–
SKYLLEEWFQNCYARYHQAFADRD [TEKT4]	2.48 ± 0.24	2.15 ± 0.25	–	–
IPAEENASTSTPSSTLVRPIRSRR [FAM189A2]	5.29 ± 0.16	5.33 ± 0.19	–	–
PSDDLTLLESSSSYKNLTLKFHKL [MCOLN1]	3.24 ± 0.21	3.31 ± 0.24	–	–
MCQRLRSMQYNGSYFDRGAKGGSR [DFFB]	3.26 ± 0.26	3.48 ± 0.42	–	–
GKLLLRLPSLRTVSSSVIEQLFFV [NR2F2]	2.81 ± 0.6	2.83 ± 0.34	–	–
IRSSFISSLSFFLKKMGKRLDYLN [FBXO39]	2.71 ± 0.61	2.81 ± 0.56	–	–
LRCKLAAFYRLADLFGWSQLIYNH [ADD1]	2.89 ± 0.49	2.78 ± 0.37	–	–
VDPDNVVLCLLAADEDDDRDVALQ [GADD45A]	4.63 ± 0.38	4.77 ± 0.08	–	–
LDFLHSANFSLGSINQRLNKRERS [RNF180]	3.69 ± 0.24	3.86 ± 0.4	–	–
SSGQCRRRKRTYWNDSCGEDMEAS [WEE1]	4.18 ± 0.43	4.52 ± 0.43	–	–
FSLFGDISVLQQQGSLSNTYLSKV [FBXO33]	2.12 ± 0.38	2.13 ± 0.096	–	–
FENPADAKNAAKDMNGKSLHGKAI [RBMY1A1]	4.92 ± 0.14	5 ± 0.23	–	–
VRVPNGGGGGGGLPISTVREVALL [CDK4]	2.5 ± 0.33	2.63 ± 0.23	–	–

Sequence	protein stability index [1]	protein stability index [2]	protein stability index (treatment: DMSO, c terminus: native)	protein stability index (treatment: MLN4924 1 uM, 8 h, c terminus: native)
LNILIQSLDWETFEQYCAWQLFLA [INTS3]	3.04 ± 0.92	2.62 ± 0.12	–	–
DAHLVLDGEEIPVQKNILAAASPY [GAN]	4.18 ± 0.12	4.16 ± 0.3	–	–
LAVAGGPRKTAAPVNALVSHLLVV [ESRRA]	2.92 ± 0.61	2.85 ± 0.55	–	–
LPESGLLSVLQIAQQDLAPDPDAW [FANCE]	4.06 ± 0.19	4.01 ± 0.22	–	–
PRVLTLSERPLDFLDLERPPTTPQ [MFF]	4.26 ± 0.19	4.53 ± 0.41	–	–
IKNLYAFNLFCQKRFDESMQVFAK [VPS39]	2.19 ± 0.29	1.96 ± 0.21	–	–
ELQEKQKNEKLISLQEQLQRFLKK [TAF7L]	3.36 ± 0.33	3.39 ± 0.15	–	–
HCPESGEEAVILLEDLERELDEPQ [ZSCAN9]	5.55 ± 0.24	5.46 ± 0.44	–	–
GTVFQELNKLYPTHACREYLKNLP [TPH1]	2.46 ± 0.34	2.38 ± 0.26	–	–
KTLALARTMDIPRSVQNFRFFASS [ALDH8A1]	2.58 ± 0.26	2.6 ± 0.3	–	–
RAVLGANDPEKNFLTTAIRPHGIF [NSDHL]	2.73 ± 0.47	3.33 ± 0.039	–	–
PGRPARLDQLLDMPAAGLAVQLRH [SPSB4]	3.04 ± 0.36	3.33 ± 0.27	–	–
PSWAALNSSTWGSLKQALKGLSVE [SNX8]	2.94 ± 0.17	3.46 ± 0.29	–	–
RAKFKRKYKVKLVEKRAFREIQL [NOP53]	–	–	2.56 ± 0.36	2.79 ± 0.17
GVSANASKAWHQKSHFQNSREWSG [PBXIP1]	3.22 ± 0.33	3.23 ± 0.3	–	–
FPRMLLVDRLPGLQGALDLLAVLC [ZSWIM9]	2.29 ± 0.18	2.25 ± 0.084	–	–
RFALRFIRPDPRSRVTDPVGDIVS [FAF2]	2.49 ± 0.35	2.62 ± 0.31	–	–
NEYRKLHPVLHKEEKQHLERLNKE [TRIM43]	4.9 ± 0.21	4.87 ± 0.081	–	–
GSLGFEPVYVSCIAQDTCTTTDHS [SPAG8]	3.37 ± 0.35	3.64 ± 0.17	–	–
ETYIHLLAMKIKVGSDDLERIEAR [PSD2]	2.26 ± 0.13	2.5 ± 0.44	–	–
KGMVLDENYNNLANAVISVSGINH [CPN1]	3.06 ± 0.086	3.02 ± 0.29	–	–
